*1 amine or outer side, *2 acyl side, *3 side chain or, on linkers, in order; H or OH if unused. Where no end group is shown, it is not given here. Side-chain parts run from the residue outwards. [ ]: non-standard residue; d: D form. The star is where a group is joined. C18 diacid = O=C(O)CCCCCCCCCCCCCCCCC(=O)*; C16 diacid = O=C(O)CCCCCCCCCCCCCCC(=O)*; γGlu = O=C(O)[C@H](CCC(=O)[*:2])N[*:1]; αMeL = CC(C)C[C@](C)(N)C(=O)O; AEEA = NCCOCCOCC(=O)O; Aib = CC(C)(N)C(=O)O
T1: CRF1R receptor (UniProt P34998 24-415, limits assumed)
T1 sequence (looked up): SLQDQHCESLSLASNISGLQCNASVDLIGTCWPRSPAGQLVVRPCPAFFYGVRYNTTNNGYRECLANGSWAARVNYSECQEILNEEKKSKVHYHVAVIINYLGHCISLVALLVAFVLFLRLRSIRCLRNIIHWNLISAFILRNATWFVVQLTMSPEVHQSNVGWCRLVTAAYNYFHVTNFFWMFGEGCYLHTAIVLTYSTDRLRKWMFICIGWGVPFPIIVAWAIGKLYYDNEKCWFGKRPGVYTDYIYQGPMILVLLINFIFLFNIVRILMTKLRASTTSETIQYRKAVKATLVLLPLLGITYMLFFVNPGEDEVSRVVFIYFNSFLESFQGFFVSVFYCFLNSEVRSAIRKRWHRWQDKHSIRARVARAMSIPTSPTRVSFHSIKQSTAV

B1: SEQ ID NO 26 (peptide)
peptide: Ac-IVLSLDVPIKLK([AEEA-AEEA-γGlu-γGlu-C18 diacid])Q[Aib]LLKQERQKKQREQAEKN[Aib]QILEQV-NH2
SMILES: CC[C@H](C)[C@H](NC(C)=O)C(=O)N[C@H](C(=O)N[C@@H](CC(C)C)C(=O)N[C@@H](CO)C(=O)N[C@@H](CC(C)C)C(=O)N[C@@H](CC(=O)O)C(=O)N[C@H](C(=O)N1CCC[C@H]1C(=O)N[C@H](C(=O)N[C@@H](CCCCN)C(=O)N[C@@H](CC(C)C)C(=O)N[C@@H](CCCCNC(=O)COCCOCCNC(=O)COCCOCCNC(=O)CC[C@H](NC(=O)CC[C@H](NC(=O)CCCCCCCCCCCCCCCCC(=O)O)C(=O)O)C(=O)O)C(=O)N[C@@H](CCC(N)=O)C(=O)NC(C)(C)C(=O)N[C@@H](CC(C)C)C(=O)N[C@@H](CC(C)C)C(=O)N[C@@H](CCCCN)C(=O)N[C@@H](CCC(N)=O)C(=O)N[C@@H](CCC(=O)O)C(=O)N[C@@H](CCCNC(=N)N)C(=O)N[C@@H](CCC(N)=O)C(=O)N[C@@H](CCCCN)C(=O)N[C@@H](CCCCN)C(=O)N[C@@H](CCC(N)=O)C(=O)N[C@@H](CCCNC(=N)N)C(=O)N[C@@H](CCC(=O)O)C(=O)N[C@@H](CCC(N)=O)C(=O)N[C@@H](C)C(=O)N[C@@H](CCC(=O)O)C(=O)N[C@@H](CCCCN)C(=O)N[C@@H](CC(N)=O)C(=O)NC(C)(C)C(=O)N[C@@H](CCC(N)=O)C(=O)N[C@H](C(=O)N[C@@H](CC(C)C)C(=O)N[C@@H](CCC(=O)O)C(=O)N[C@@H](CCC(N)=O)C(=O)N[C@H](C(N)=O)C(C)C)[C@@H](C)CC)[C@@H](C)CC)C(C)C)C(C)C
B2: SEQ ID NO 19 (peptide)
peptide: Ac-IVLSLDVPIK[αMeL]K([γGlu-C16 diacid])QILLKQERQKKQREQAEKN[Aib]QILEQV-NH2
SMILES: CC[C@H](C)[C@H](NC(C)=O)C(=O)N[C@H](C(=O)N[C@@H](CC(C)C)C(=O)N[C@@H](CO)C(=O)N[C@@H](CC(C)C)C(=O)N[C@@H](CC(=O)O)C(=O)N[C@H](C(=O)N1CCC[C@H]1C(=O)N[C@H](C(=O)N[C@@H](CCCCN)C(=O)N[C@@](C)(CC(C)C)C(=O)N[C@@H](CCCCNC(=O)CC[C@H](NC(=O)CCCCCCCCCCCCCCC(=O)O)C(=O)O)C(=O)N[C@@H](CCC(N)=O)C(=O)N[C@H](C(=O)N[C@@H](CC(C)C)C(=O)N[C@@H](CC(C)C)C(=O)N[C@@H](CCCCN)C(=O)N[C@@H](CCC(N)=O)C(=O)N[C@@H](CCC(=O)O)C(=O)N[C@@H](CCCNC(=N)N)C(=O)N[C@@H](CCC(N)=O)C(=O)N[C@@H](CCCCN)C(=O)N[C@@H](CCCCN)C(=O)N[C@@H](CCC(N)=O)C(=O)N[C@@H](CCCNC(=N)N)C(=O)N[C@@H](CCC(=O)O)C(=O)N[C@@H](CCC(N)=O)C(=O)N[C@@H](C)C(=O)N[C@@H](CCC(=O)O)C(=O)N[C@@H](CCCCN)C(=O)N[C@@H](CC(N)=O)C(=O)NC(C)(C)C(=O)N[C@@H](CCC(N)=O)C(=O)N[C@H](C(=O)N[C@@H](CC(C)C)C(=O)N[C@@H](CCC(=O)O)C(=O)N[C@@H](CCC(N)=O)C(=O)N[C@H](C(N)=O)C(C)C)[C@@H](C)CC)[C@@H](C)CC)[C@@H](C)CC)C(C)C)C(C)C
B3: SEQ ID NO 20 (peptide)
peptide: Ac-IVLSLDVPIK[αMeL]K([γGlu-C16 diacid])Q[Aib]LLKQERQKKQREQAEKN[Aib]QILEQV-NH2
SMILES: CC[C@H](C)[C@H](NC(C)=O)C(=O)N[C@H](C(=O)N[C@@H](CC(C)C)C(=O)N[C@@H](CO)C(=O)N[C@@H](CC(C)C)C(=O)N[C@@H](CC(=O)O)C(=O)N[C@H](C(=O)N1CCC[C@H]1C(=O)N[C@H](C(=O)N[C@@H](CCCCN)C(=O)N[C@@](C)(CC(C)C)C(=O)N[C@@H](CCCCNC(=O)CC[C@H](NC(=O)CCCCCCCCCCCCCCC(=O)O)C(=O)O)C(=O)N[C@@H](CCC(N)=O)C(=O)NC(C)(C)C(=O)N[C@@H](CC(C)C)C(=O)N[C@@H](CC(C)C)C(=O)N[C@@H](CCCCN)C(=O)N[C@@H](CCC(N)=O)C(=O)N[C@@H](CCC(=O)O)C(=O)N[C@@H](CCCNC(=N)N)C(=O)N[C@@H](CCC(N)=O)C(=O)N[C@@H](CCCCN)C(=O)N[C@@H](CCCCN)C(=O)N[C@@H](CCC(N)=O)C(=O)N[C@@H](CCCNC(=N)N)C(=O)N[C@@H](CCC(=O)O)C(=O)N[C@@H](CCC(N)=O)C(=O)N[C@@H](C)C(=O)N[C@@H](CCC(=O)O)C(=O)N[C@@H](CCCCN)C(=O)N[C@@H](CC(N)=O)C(=O)NC(C)(C)C(=O)N[C@@H](CCC(N)=O)C(=O)N[C@H](C(=O)N[C@@H](CC(C)C)C(=O)N[C@@H](CCC(=O)O)C(=O)N[C@@H](CCC(N)=O)C(=O)N[C@H](C(N)=O)C(C)C)[C@@H](C)CC)[C@@H](C)CC)C(C)C)C(C)C
B4: SEQ ID NO 39 (peptide)
peptide: Ac-IVLSLDVPIKLK([γGlu-C16 diacid])KILLEQEKQKKQREQAETN[Aib]QILAQV-NH2
SMILES: CC[C@H](C)[C@H](NC(C)=O)C(=O)N[C@H](C(=O)N[C@@H](CC(C)C)C(=O)N[C@@H](CO)C(=O)N[C@@H](CC(C)C)C(=O)N[C@@H](CC(=O)O)C(=O)N[C@H](C(=O)N1CCC[C@H]1C(=O)N[C@H](C(=O)N[C@@H](CCCCN)C(=O)N[C@@H](CC(C)C)C(=O)N[C@@H](CCCCNC(=O)CC[C@H](NC(=O)CCCCCCCCCCCCCCC(=O)O)C(=O)O)C(=O)N[C@@H](CCCCN)C(=O)N[C@H](C(=O)N[C@@H](CC(C)C)C(=O)N[C@@H](CC(C)C)C(=O)N[C@@H](CCC(=O)O)C(=O)N[C@@H](CCC(N)=O)C(=O)N[C@@H](CCC(=O)O)C(=O)N[C@@H](CCCCN)C(=O)N[C@@H](CCC(N)=O)C(=O)N[C@@H](CCCCN)C(=O)N[C@@H](CCCCN)C(=O)N[C@@H](CCC(N)=O)C(=O)N[C@@H](CCCNC(=N)N)C(=O)N[C@@H](CCC(=O)O)C(=O)N[C@@H](CCC(N)=O)C(=O)N[C@@H](C)C(=O)N[C@@H](CCC(=O)O)C(=O)N[C@H](C(=O)N[C@@H](CC(N)=O)C(=O)NC(C)(C)C(=O)N[C@@H](CCC(N)=O)C(=O)N[C@H](C(=O)N[C@@H](CC(C)C)C(=O)N[C@@H](C)C(=O)N[C@@H](CCC(N)=O)C(=O)N[C@H](C(N)=O)C(C)C)[C@@H](C)CC)[C@@H](C)O)[C@@H](C)CC)[C@@H](C)CC)C(C)C)C(C)C
B5: SEQ ID NO 97 (peptide)
peptide: Ac-IVLSLDVPIKLK([AEEA-AEEA-γGlu-C18 diacid])KILLEQEKQKKQREQAETN[Aib]QILAQV-NH2
SMILES: CC[C@H](C)[C@H](NC(C)=O)C(=O)N[C@H](C(=O)N[C@@H](CC(C)C)C(=O)N[C@@H](CO)C(=O)N[C@@H](CC(C)C)C(=O)N[C@@H](CC(=O)O)C(=O)N[C@H](C(=O)N1CCC[C@H]1C(=O)N[C@H](C(=O)N[C@@H](CCCCN)C(=O)N[C@@H](CC(C)C)C(=O)N[C@@H](CCCCNC(=O)COCCOCCNC(=O)COCCOCCNC(=O)CC[C@H](NC(=O)CCCCCCCCCCCCCCCCC(=O)O)C(=O)O)C(=O)N[C@@H](CCCCN)C(=O)N[C@H](C(=O)N[C@@H](CC(C)C)C(=O)N[C@@H](CC(C)C)C(=O)N[C@@H](CCC(=O)O)C(=O)N[C@@H](CCC(N)=O)C(=O)N[C@@H](CCC(=O)O)C(=O)N[C@@H](CCCCN)C(=O)N[C@@H](CCC(N)=O)C(=O)N[C@@H](CCCCN)C(=O)N[C@@H](CCCCN)C(=O)N[C@@H](CCC(N)=O)C(=O)N[C@@H](CCCNC(=N)N)C(=O)N[C@@H](CCC(=O)O)C(=O)N[C@@H](CCC(N)=O)C(=O)N[C@@H](C)C(=O)N[C@@H](CCC(=O)O)C(=O)N[C@H](C(=O)N[C@@H](CC(N)=O)C(=O)NC(C)(C)C(=O)N[C@@H](CCC(N)=O)C(=O)N[C@H](C(=O)N[C@@H](CC(C)C)C(=O)N[C@@H](C)C(=O)N[C@@H](CCC(N)=O)C(=O)N[C@H](C(N)=O)C(C)C)[C@@H](C)CC)[C@@H](C)O)[C@@H](C)CC)[C@@H](C)CC)C(C)C)C(C)C
B6: SEQ ID NO 38 (peptide)
peptide: IVLSLDVPIK[αMeL]K([γGlu-C16 diacid])KILLEQEKQKKQREQAETN[Aib]QILAQV-NH2
modifications: N-terminus assumed
SMILES: CC[C@H](C)[C@H](N)C(=O)N[C@H](C(=O)N[C@@H](CC(C)C)C(=O)N[C@@H](CO)C(=O)N[C@@H](CC(C)C)C(=O)N[C@@H](CC(=O)O)C(=O)N[C@H](C(=O)N1CCC[C@H]1C(=O)N[C@H](C(=O)N[C@@H](CCCCN)C(=O)N[C@@](C)(CC(C)C)C(=O)N[C@@H](CCCCNC(=O)CC[C@H](NC(=O)CCCCCCCCCCCCCCC(=O)O)C(=O)O)C(=O)N[C@@H](CCCCN)C(=O)N[C@H](C(=O)N[C@@H](CC(C)C)C(=O)N[C@@H](CC(C)C)C(=O)N[C@@H](CCC(=O)O)C(=O)N[C@@H](CCC(N)=O)C(=O)N[C@@H](CCC(=O)O)C(=O)N[C@@H](CCCCN)C(=O)N[C@@H](CCC(N)=O)C(=O)N[C@@H](CCCCN)C(=O)N[C@@H](CCCCN)C(=O)N[C@@H](CCC(N)=O)C(=O)N[C@@H](CCCNC(=N)N)C(=O)N[C@@H](CCC(=O)O)C(=O)N[C@@H](CCC(N)=O)C(=O)N[C@@H](C)C(=O)N[C@@H](CCC(=O)O)C(=O)N[C@H](C(=O)N[C@@H](CC(N)=O)C(=O)NC(C)(C)C(=O)N[C@@H](CCC(N)=O)C(=O)N[C@H](C(=O)N[C@@H](CC(C)C)C(=O)N[C@@H](C)C(=O)N[C@@H](CCC(N)=O)C(=O)N[C@H](C(N)=O)C(C)C)[C@@H](C)CC)[C@@H](C)O)[C@@H](C)CC)[C@@H](C)CC)C(C)C)C(C)C

Key:
[1] = biological target: T1, CRF1R receptor; test: cell-based or functional assay
[2] = biological target: human corticotropin-releasing factor 2a (CRF2a receptor) (human), Q13324; test: cell-based or functional assay
Sequence of human corticotropin-releasing factor 2a (CRF2a receptor) (human), Q13324 (Q13324 20-411): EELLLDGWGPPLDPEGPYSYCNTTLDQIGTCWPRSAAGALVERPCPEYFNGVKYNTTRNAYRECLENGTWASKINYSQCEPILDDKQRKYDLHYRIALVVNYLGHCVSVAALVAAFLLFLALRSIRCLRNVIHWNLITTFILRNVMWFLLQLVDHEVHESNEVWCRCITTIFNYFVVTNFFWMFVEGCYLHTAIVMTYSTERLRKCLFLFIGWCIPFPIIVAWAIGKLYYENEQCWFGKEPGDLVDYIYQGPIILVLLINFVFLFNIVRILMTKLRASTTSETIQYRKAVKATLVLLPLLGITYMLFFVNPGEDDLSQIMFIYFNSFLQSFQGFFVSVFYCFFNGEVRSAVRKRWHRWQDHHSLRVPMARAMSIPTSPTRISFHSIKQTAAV

Row | Binder | EC50 [1] | Emax (% I) [1] | EC50 [nM] (cAMP) [2]
1 | B1 | > 250 nM | 1% | 18.6 nM
2 | B2 | – | 6% | 0.28 nM
3 | B3 | – | 3% | 1.09 nM
4 | B4 | – | 2% | 0.53 nM
5 | B5 | – | 0% | 3.17 nM
6 | B6 | – | 6% | 0.49 nM

— patent publication US20260001928A1 (CORTERIA PHARMACEUTICALS, priority 2022, published 2026)
